Target: T1, cpHaloΔ9mer
T1 construct: also called cpHalo_9mer; cpHalo156-141
Assay: ITC; 9mer peptide (~30 mM) titrated into 0.6 mM cpHaloΔ9mer; three independent measurements; one-site model
Protocol: Heat of dilution of the peptide was subtracted prior to the analysis. Kd was calculated from three independent measurements, error represents standard deviation.
This maximal concentration of peptide was titrated against a 0.6 mM cpHaloΔ9mer (FIG. 1).

T1 sequence (chain, as listed by the source mutant): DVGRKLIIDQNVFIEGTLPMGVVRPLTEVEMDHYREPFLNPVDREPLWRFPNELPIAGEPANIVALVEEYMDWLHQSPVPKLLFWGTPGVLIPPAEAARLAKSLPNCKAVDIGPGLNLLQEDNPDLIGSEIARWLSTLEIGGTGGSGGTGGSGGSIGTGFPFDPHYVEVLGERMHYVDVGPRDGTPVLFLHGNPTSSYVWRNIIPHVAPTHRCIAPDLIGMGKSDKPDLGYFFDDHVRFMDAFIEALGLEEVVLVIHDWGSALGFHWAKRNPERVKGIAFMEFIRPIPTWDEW

- Kd: 5.3 mM
B1: 9mer peptide (peptide)
peptide: ARETFQAFR
notes: Free peptide titrated in the ITC assay; also called PEP1
